IC50 data for two molecules are collected here from US20100113304A1 (Pfizer, published 2010).

Numbering of substitutions follows the chain as printed.

This test has as its target T1, biotin labeled hRAGE-Fc (human, UniProt Q15109 24-344, limits assumed, biotin labeled (site not stated)).
T1 construct: Biotinylated in selections and HTRF; also called Biotin-labeled RAGE-Fc; biotinylated RAGE-FC; not shown: Fc part, not described
The experiment in a line: HTRF competition on biotinylated hRAGE-Fc; scFv titrated; competitor Eu-cryptate-labeled parental XT-M4 antibody.

T1 sequence (Q15109 24-344 limits assumed): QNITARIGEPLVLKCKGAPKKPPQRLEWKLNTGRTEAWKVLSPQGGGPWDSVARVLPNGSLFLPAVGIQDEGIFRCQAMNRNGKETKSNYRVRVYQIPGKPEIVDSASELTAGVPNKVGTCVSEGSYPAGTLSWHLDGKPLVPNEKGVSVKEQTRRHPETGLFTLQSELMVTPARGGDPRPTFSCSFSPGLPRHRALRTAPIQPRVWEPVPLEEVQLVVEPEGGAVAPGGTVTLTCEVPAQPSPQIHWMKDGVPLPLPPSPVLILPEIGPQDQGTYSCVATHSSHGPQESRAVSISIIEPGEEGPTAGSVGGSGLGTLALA

B1: 3B4 scFv (scFv)
chain: DIQMTQSPSSLSASVGDRVTITCRASQDVGIYVNWFQQKPGKAPRRLIYRATNLADGVPSRFSGSRSGTDFTLTISSLQPEDFATYYCLEFDEHPLTFGGGTKVEIKDGGGSGGGGSGGGGSSEVQLVESGGGLVQPGGSLRLSCAASGFTFNNYWMTWVRQAPGKGLEWVASIDNSGDNTYYPDSVKDRFTISRDNAKNSLYLQMNSLRAEDTAVYYCARGGDIREGLRYWGQGTLVTVSS
Regarding B1, the IC50 was 1.31 nM.

B2: 6D5 scFv (scFv)
chain: B1 chain with R226K, E227V, G228S, R230D, Y231Q
Turning to B2, the IC50 is 1.46 nM.
